Patent US20250042994A1 (HAINAN SIMCERE ZAIMING PHARMACEUTICAL, published 2025)
Where a chain is given by its changes, count along the chain named.

T1: murine CD19 protein (murine, UniProt P25918 17-287, limits assumed)
T1 construct: bought protein; also called commercial murine CD19
T1 sequence (looked up): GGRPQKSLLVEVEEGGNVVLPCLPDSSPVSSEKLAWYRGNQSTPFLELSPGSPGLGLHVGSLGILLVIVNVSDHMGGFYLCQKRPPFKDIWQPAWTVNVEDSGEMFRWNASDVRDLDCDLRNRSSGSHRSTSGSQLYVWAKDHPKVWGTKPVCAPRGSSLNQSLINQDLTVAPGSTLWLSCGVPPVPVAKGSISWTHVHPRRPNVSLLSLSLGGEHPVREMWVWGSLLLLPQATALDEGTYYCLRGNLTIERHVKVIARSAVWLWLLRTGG

T2: human CD19 exon1-3-his protein (human, UniProt P15391 20-186, limits assumed)
T2 construct: made in HEK293E cells; also called membrane-distal end; not shown: His tag
T2 sequence (looked up): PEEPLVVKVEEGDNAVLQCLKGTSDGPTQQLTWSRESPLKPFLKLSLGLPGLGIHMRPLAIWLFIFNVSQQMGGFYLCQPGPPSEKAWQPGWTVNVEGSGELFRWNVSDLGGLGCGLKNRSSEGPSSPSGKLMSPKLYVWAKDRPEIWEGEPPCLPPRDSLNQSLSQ

B1: F3.121.4-L1H4 (antibody, mouse IgG1, kappa)
heavy: EVQLQQSGAEVKKPGASVKVSCKASGYTFTNYWMHWVRQRPGQGLEWMGEIDPSDNYANYNQEFQGRVTITVDKSASTAYMELSSLRSEDTAVYYCARHDGYFGALDYWGQGTTVTVSSAKTTPPSVYPLAPGSAAQTNSMVTLGCLVKGYFPEPVTVTWNSGSLSSGVHTFPAVLQSDLYTLSSSVTVPSSTWPSETVTCNVAHPASSTKVDKKIVPRDCGCKPCICTVPEVSSVFIFPPKPKDVLTITLTPKVTCVVVDISKDDPEVQFSWFVDDVEVHTAQTQPREEQFNSTFRSVSELPIMHQDWLNGKEFKCRVNSAAFPAPIEKTISKTKGRPKAPQVYTIPPPKEQMAKDKVSLTCMITDFFPEDITVEWQWNGQPAENYKNTQPIMDTDGSYFVYSKLNVQKSNWEAGNTFTCSVLHEGLHNHHTEKSLSHSPGK
light: EIVLTQSPATLSLSPGERATLSCSASSSISSNYLHWYQQKPGQAPRFLIYRTSNLASGIPARFSGSGSGTDFTLTISSLEPEDFAVYYCQQASSIPRMFTFGQGTKLEIKRADAAPTVSIFPPSSEQLTSGGASVVCFLNNFYPKDINVKWKIDGSERQNGVLNSWTDQDSKDSTYSMSSTLTLTKDEYERHNSYTCEATHKTSTSPIVKSFNRNEC
notes: murine IgG1 constant regions; also called humanized antibody of F3.121.4
B2: F3.121.4-L2H2 (antibody, mouse IgG1, kappa, V domains shown)
VH: EVQLVQSGAEVKKPGASVKVSCKASGYTFTNYWMHWVRQAPGQGLEWMGEIDPSDNYANYNQEFQGRVTITVDKSASTAYMELSSLRSEDTAVYYCARHDGYFGALDYWGQGTTVTVSS
VL: EIVLTQSPDFQSVTPKEKVTITCSASSSISSNYLHWYQQKPDQSPKLLIKRTSNLASGVPSRFSGSGSGTDFTLTINSLEAEDAATYYCQQASSIPRMFTFGQGTKLEIKR
notes: as for B1
B3: F3.121.4-L2H3 (antibody, mouse IgG1, kappa)
heavy: B1 heavy with Q5V
light: EIVLTQSPDFQSVTPKEKVTITCSASSSISSNYLHWYQQKPDQSPKLLIKRTSNLASGVPSRFSGSGSGTDFTLTINSLEAEDAATYYCQQASSIPRMFTFGQGTKLEIKRADAAPTVSIFPPSSEQLTSGGASVVCFLNNFYPKDINVKWKIDGSERQNGVLNSWTDQDSKDSTYSMSSTLTLTKDEYERHNSYTCEATHKTSTSPIVKSFNRNEC
notes: as for B1
B4: F3.121.4-L2H1 (antibody, mouse IgG1, kappa, V domains shown)
VH: B2 VH with G44R
VL: B2 VL
notes: as for B1
B5: F3.121.4-L3H4 (antibody, mouse IgG1, kappa)
heavy: B1 heavy
light: B3 light with L47F, K50Y
notes: as for B1
B6: F3.121.4-L3H3 (antibody, mouse IgG1, kappa)
heavy: B1 heavy with Q5V
light: B3 light with L47F, K50Y
notes: as for B1
B7: F3.121.4-L2H4 (antibody, mouse IgG1, kappa)
heavy: B1 heavy
light: B3 light
notes: as for B1
B8: F3.121.4-L3H1 (antibody, mouse IgG1, kappa, V domains shown)
VH: B2 VH with G44R
VL: B2 VL with L47F, K50Y
notes: as for B1
B9: F3.121.4-L3H2 (antibody, mouse IgG1, kappa, V domains shown)
VH: B2 VH
VL: B2 VL with L47F, K50Y
notes: as for B1

The binders below were run against T1, murine CD19 protein (assay: ELISA).
Method: Human CD19-his protein (purchased from ACROBiosystems, catalog number: CD9-H52H2) was diluted with PBS to a final concentration of 4 μg/mL, and then added to a 96-well ELISA plate at 100 μl/well. The plate was sealed with a plastic film and incubated overnight at 4° C., the plate was washed 2 times with PBS the next day, and then a blocking solution [PBS+2% (w/w) BSA] was added for blocking at room temperature for 2 h. The blocking solution was poured off, and 100 nM gradiently diluted CD19 chimeric antibody or control antibody was added at 50 μl/well. After incubation at 37° C. for 2 h, the plate was washed 3 times with PBS. […] TMB substrate was added at 50 μl/well, and incubated at room temperature for 10 min, and then a stop solution (1.0 N HCl) was added at 50 μl/well. The OD450 nm values were read by an ELISA microplate reader (Multimode Plate Reader, EnSight, purchased from Perkin Elmer).
In order to detect the species cross-binding activity of the chimeric antibodies, an ELISA plate was coated with commercial murine CD19 (ACROBiosystems, catalog number: 50510-M08H) and monkey CD19 (ACROBiosystems, catalog number: 90051-C08H), respectively, and the ELISA detection was performed according to the method in example 5.1. […]

| binding result | Binder |
| --- | --- |
| no binding | B1 |
| no binding | B2 |
| no binding | B3 |
| no binding | B4 |
| no binding | B5 |
| no binding | B6 |
| no binding | B7 |
| no binding | B8 |
| no binding | B9 |

Each binder was assayed against T2, human CD19 exon1-3-his protein (assay: ELISA, coated at 2 ug/mL).

| binding result | Binder |
| --- | --- |
| no binding | B1 |
| no binding | B2 |
| no binding | B3 |
| no binding | B4 |
| no binding | B5 |
| no binding | B6 |
| no binding | B7 |
| no binding | B8 |
| no binding | B9 |
